Sequences and labels used below:
B1: Paired immunoglobulin-like type 2 receptor alpha (Homo sapiens), Q9UKJ1 (parent)
chain: MGRPLLLPLLPLLLPPAFLQPSGSTGSGPSYLYGVTQPKHLSASMGGSVEIPFSFYYPWELATAPDVRISWRRGHFHRQSFYSTRPPSIHKDYVNRLFLNWTEGQKSGFLRISNLQKQDQSVYFCRVELDTRSSGRQQWQSIEGTKLSITQAVTTTTQRPSSMTTTWRLSSTTTTTGLRVTQGKRRSDSWHISLETAVGVAVAVTVLGIMILGLICLLRWRRRKGQQRTKATTPAREPFQNTEEPYENIRNEGQNTDPKLNPKDDGIVYASLALSSSTSPRAPPSHRPLKSPQNETLYSVLKA

Variants of B1 are the subject of this assay. As to conditions: with ptn6_human PTPN6, P29350.
Chain of ptn6_human PTPN6, P29350 (P29350 whole entry): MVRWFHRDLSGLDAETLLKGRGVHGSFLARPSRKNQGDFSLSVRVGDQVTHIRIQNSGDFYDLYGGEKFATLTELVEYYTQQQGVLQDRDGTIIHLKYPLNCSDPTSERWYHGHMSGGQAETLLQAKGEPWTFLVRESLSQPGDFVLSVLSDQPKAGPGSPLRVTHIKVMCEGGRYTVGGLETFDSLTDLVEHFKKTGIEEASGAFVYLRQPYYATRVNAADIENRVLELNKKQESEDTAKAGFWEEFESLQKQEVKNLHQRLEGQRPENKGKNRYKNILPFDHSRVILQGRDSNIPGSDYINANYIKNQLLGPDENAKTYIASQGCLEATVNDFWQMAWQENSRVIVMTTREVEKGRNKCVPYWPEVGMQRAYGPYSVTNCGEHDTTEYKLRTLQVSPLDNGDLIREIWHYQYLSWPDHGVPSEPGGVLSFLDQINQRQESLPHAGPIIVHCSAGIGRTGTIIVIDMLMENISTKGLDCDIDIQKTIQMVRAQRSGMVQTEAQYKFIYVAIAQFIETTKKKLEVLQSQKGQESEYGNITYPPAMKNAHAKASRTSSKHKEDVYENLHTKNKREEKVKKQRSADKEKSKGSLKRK
As for Y269F;Y298F, the “effect of a mutation on the interaction” value was “decreasing interaction”.

For Y269F, the “effect of a mutation on the interaction” value was “decreasing interaction”.

The values above are taken from IntAct's records for PubMed 10660620.
